{"source": "paper PMC4118376", "about": "(Sensors (Basel, Switzerland), 2014)", "target": "staphylococcal enterotoxin B (Staphylococcus aureus (strain not …, UniProt P01552))", "sequence (P01552 28-266)": "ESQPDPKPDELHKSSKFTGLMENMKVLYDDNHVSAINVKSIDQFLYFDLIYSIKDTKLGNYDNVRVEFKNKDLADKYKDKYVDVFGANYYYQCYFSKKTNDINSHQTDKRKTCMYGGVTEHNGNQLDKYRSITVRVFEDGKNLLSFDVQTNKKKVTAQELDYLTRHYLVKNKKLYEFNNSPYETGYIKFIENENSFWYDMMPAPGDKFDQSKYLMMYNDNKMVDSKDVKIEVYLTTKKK", "assay": "SPR", "details": "both partners purified", "data": [{"binder": "sdAb H9-H11 (VHH, source: E. coli, periplasm, purified (IMAC, size exclusion chromatography)) VHH: DVQLQASGGGLVQPGGSLRLSCAASESAVRIGFMGWHRQAPGNQRERVAQISSTGLPTYADAVKGRFTISRDNTKNTVYLQMNSLNADDTAVYFCNARLYDGTSVWGQGTQVTVSS", "values": [{"measurement": "Kd", "result": 1.56, "unit": "nM"}, {"measurement": "koff", "result": 0.000755, "unit": "s⁻¹"}, {"measurement": "kon", "result": 485000, "unit": "M⁻¹ s⁻¹"}]}, {"binder": "sdAb S222-A2 (VHH, source: E. coli, periplasm, purified (IMAC, size exclusion chromatography)) VHH: DVQLQASGGGLVEPGGSLRLSCAASGSAVSIGFMGWHRQAPGKQRERVAQISSTGIPNYADTVKGRFTISRDNTKNTMYLQMNSLNADDTAVYFCNARLYDGTSAWGQGTQVTVSS", "values": [{"measurement": "Kd", "result": 4.16, "unit": "nM"}, {"measurement": "koff", "result": 0.00506, "unit": "s⁻¹"}, {"measurement": "kon", "result": "1.22e+06", "unit": "M⁻¹ s⁻¹"}]}, {"binder": "sdAb H9-A1 (VHH, source: E. coli Rosetta (DE3), periplasm, purified (IMAC, size exclusion chromatography)) VHH: EVQLQASGGGLVQPGGSLRLSCAASGSAVSIGFMAWYRQAPGKQRELVARISSSGLPDYADTVKGRFTISRDNTRKTVSLQMNSLNPDDTAVYYCNARLYDGSSAWGQGTQVTVSS", "values": [{"measurement": "Kd", "result": 1.25, "unit": "nM"}, {"measurement": "koff", "result": 0.00227, "unit": "s⁻¹"}, {"measurement": "kon", "result": "1.8e+06", "unit": "M⁻¹ s⁻¹"}]}, {"binder": "sdAb H9-B11 (VHH, source: E. coli, periplasm, purified (IMAC, size exclusion chromatography)) VHH: DVQLQASGGGLVQVGGSLRLSCAASGSTFRIGYMGWYRQAPGKPRELVARISSGGTTDYLDFVKDRFTISRDNAKNTVYLQMSSLKPEDTAVYYCNVVNYRANEYWGQGTQVTVSS", "values": [{"measurement": "Kd", "result": 3.32, "unit": "nM"}, {"measurement": "koff", "result": 0.000512, "unit": "s⁻¹"}, {"measurement": "kon", "result": 154000, "unit": "M⁻¹ s⁻¹"}]}, {"binder": "sdAb H9-D7 (VHH, source: E. coli Rosetta (DE3), periplasm, purified (IMAC, size exclusion chromatography)) VHH: DVQLQASGGGLVQVGGSLRLSCAASGSTFRIGYMSWHRQAPGKSRELVARISSGGTTDYLDSVKDRFTISRDNTKNTVYLQMNSLEPEDTAVYYCNVVDYRANEYWGQGTQVAVSS", "values": [{"measurement": "Kd", "result": 1.1, "unit": "nM"}, {"measurement": "koff", "result": 0.000192, "unit": "s⁻¹"}, {"measurement": "kon", "result": 174000, "unit": "M⁻¹ s⁻¹"}]}, {"binder": "sdAb E2 (VHH, source: E. coli Rosetta (DE3), periplasm, purified (IMAC, size exclusion chromatography)) VHH: EVQLQASGGGLVQAGGSLRLTCAASGRTFGSYAMGWFRQAPGKEREFVAAISWSGGDTYADSVKGRFTISRDNAKNTVYLQMNSLAPEDTAVYSCAAVGARYYISKDAKDYGYWGQGTQVTVSS", "values": [{"measurement": "Kd", "result": 0.273, "unit": "nM"}, {"measurement": "koff", "result": 0.00351, "unit": "s⁻¹"}, {"measurement": "kon", "result": "1.28e+07", "unit": "M⁻¹ s⁻¹"}]}, {"binder": "sdAb F1 (VHH, source: E. coli Rosetta (DE3), periplasm, purified (IMAC, size exclusion chromatography)) VHH: DVQLQASGGGLVQAGGSLRLTCAASLHTFGSYAMGWFRQAPGKEREFVAAISWSGGDTYSDSVKGRFTISRDNAKNTVYLQMNSLEPEDTAVYSCAAVEARYYISTDAKDYGYWGQGTQVTVSS", "values": [{"measurement": "Kd", "result": 0.65, "unit": "nM"}, {"measurement": "koff", "result": 0.00042, "unit": "s⁻¹"}, {"measurement": "kon", "result": 646000, "unit": "M⁻¹ s⁻¹"}]}, {"binder": "sdAb D9 (VHH, source: E. coli Rosetta (DE3), periplasm, purified (IMAC, size exclusion chromatography)) VHH: EVQLQASGGGLAQAGDSLRLSCAASIRTFGSYAMGWFRQAPGKEREFVAAISWSGGDTYADSAKGRFTISRDNAKNMMYLQMNSLAPEDTAVYFCAIVEAKYYISKDARDYGYWGQGTQVFVSS", "values": [{"measurement": "Kd", "result": 0.111, "unit": "nM"}, {"measurement": "koff", "result": 0.000277, "unit": "s⁻¹"}, {"measurement": "kon", "result": "2.49e+06", "unit": "M⁻¹ s⁻¹"}]}, {"binder": "sdAb B12 (VHH, source: E. coli Rosetta (DE3), periplasm, purified (IMAC, size exclusion chromatography)) VHH: EVQLQASGGGLVQAGGPLRLTCAVSGPTFGSYALGWFRQAPGKEREFVAAVSWSGGDTYADSVKGRFIISRDNAKNTVYLQMNNLEPEDTAVYSCARMQDRYYISKDAKDYGYWGQGTQVTVSS", "values": [{"measurement": "Kd", "result": 0.232, "unit": "nM"}, {"measurement": "koff", "result": 0.000321, "unit": "s⁻¹"}, {"measurement": "kon", "result": "1.39e+06", "unit": "M⁻¹ s⁻¹"}]}, {"binder": "sdAb B1 (VHH, source: E. coli Rosetta (DE3), periplasm, purified (IMAC, size exclusion chromatography)) VHH: EVQLQASGGGLVQAGGSLRLTCAVSGPTFGSYALGWFRQAPGKEREFVAAVSWSGGDTYADTAKGRFIISRDNAKNTVYLQMNNLEPEDTAVYSCARMQDRYYISKDAKDYGYWGQGTQVIVSS", "values": [{"measurement": "Kd", "result": 0.2, "unit": "nM"}, {"measurement": "koff", "result": 0.00039, "unit": "s⁻¹"}, {"measurement": "kon", "result": "1.95e+06", "unit": "M⁻¹ s⁻¹"}]}, {"binder": "sdAb H9 (VHH, source: E. coli Rosetta (DE3), periplasm, purified (IMAC, size exclusion chromatography)) VHH: EVQLQASGGGLVQAGGSLRLTCAVSGPTFGSYALGWFRQAPGKEREFVAAVSWSGGDTYADSVKGRFIISRDNAKNTVYLQMNNLEPEDTAVYSCARMQDRYYISKDAKDYGYWGQETQVTVSS", "values": [{"measurement": "Kd", "result": 0.09, "unit": "nM"}, {"measurement": "koff", "result": 0.000318, "unit": "s⁻¹"}, {"measurement": "kon", "result": "3.53e+06", "unit": "M⁻¹ s⁻¹"}]}, {"binder": "sdAb A10 (VHH, source: E. coli Rosetta (DE3), periplasm, purified (IMAC, size exclusion chromatography)) VHH: EVQLQASGGGLVRAGGTLRLTCDATTPTFGSYAMGWFRQAPGKEREFVSAISWSGGDTYADSVKGRFTISRDNTRNRVYLQMNDLEPDDTAIYTCARTTARYYISKDAKDYDYWGQGTQVTVSS", "values": [{"measurement": "Kd", "result": 0.158, "unit": "nM"}, {"measurement": "koff", "result": 0.000277, "unit": "s⁻¹"}, {"measurement": "kon", "result": "1.76e+06", "unit": "M⁻¹ s⁻¹"}]}, {"binder": "sdAb H12 (VHH, source: E. coli Rosetta (DE3), periplasm, purified (IMAC, size exclusion chromatography)) VHH: EVQLQASGGGLVLTGGSLRLSCAASGRNFSNYAMAWFRQAPGKEREFVGTISWYTNTNYANSVKGRFSISRDNAKNTVYLQMSSLKPEDTAVYYCAAAPAMYYNPYTRESEYGYWGQGTQVTVSS", "values": [{"measurement": "Kd", "result": 0.272, "unit": "nM"}, {"measurement": "koff", "result": 0.000607, "unit": "s⁻¹"}, {"measurement": "kon", "result": "2.23e+06", "unit": "M⁻¹ s⁻¹"}]}, {"binder": "sdAb E9 (VHH, source: E. coli Rosetta (DE3), periplasm, purified (IMAC, size exclusion chromatography)) VHH: EVQLQASGGGLVQAGGSLRLSCAASGRDFSDYAMAWFRQAPGKEREFVGTISWYTNTNYADSVKGRFSISRDNAKNTVYLQMSSLKPEDTAVYYCAAAPARYYNPYKRESEYGYWGQGTQVTVSS", "values": [{"measurement": "Kd", "result": 0.533, "unit": "nM"}, {"measurement": "koff", "result": 0.000589, "unit": "s⁻¹"}, {"measurement": "kon", "result": "1.11e+06", "unit": "M⁻¹ s⁻¹"}]}]}
